Results from patent publication US20250388669A1 (published 2025).

T1: B7H3 (human, UniProt Q5ZPR3 29-466, limits assumed)
T1 construct: Tumor associated antigen; also called huB7H3
T1 sequence (looked up): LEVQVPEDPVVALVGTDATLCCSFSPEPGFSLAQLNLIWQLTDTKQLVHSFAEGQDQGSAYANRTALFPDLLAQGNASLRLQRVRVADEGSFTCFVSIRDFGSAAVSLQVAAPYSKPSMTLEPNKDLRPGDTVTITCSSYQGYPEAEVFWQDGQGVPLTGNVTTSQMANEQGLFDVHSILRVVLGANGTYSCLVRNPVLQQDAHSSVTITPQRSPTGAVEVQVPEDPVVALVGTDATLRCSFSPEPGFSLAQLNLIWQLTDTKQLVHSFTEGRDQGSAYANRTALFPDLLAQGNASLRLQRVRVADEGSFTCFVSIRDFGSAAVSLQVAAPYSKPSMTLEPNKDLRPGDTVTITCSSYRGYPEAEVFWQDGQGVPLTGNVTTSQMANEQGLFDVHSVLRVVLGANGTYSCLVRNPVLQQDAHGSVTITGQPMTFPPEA

B1: Ly2415 (bispecific antibody, human IgG1, kappa)
chain 1: QVTLKESGPALVKPTQTLTLTCTFSGFSLSTSGTCVSWIRQPPGKALEWLATICWEDSKGYNPSLKSRLTISKDTSKNQAVLTMTNMDPVDTATYYCARREDSGYFWFPYWGQGTLVTVSSASTKGPSVFPLAPSSKSTSGGTAALGCLVKDYFPEPVTVSWNSGALTSGVHTFPAVLQSSGLYSLSSVVTVPSSSLGTQTYICNVNHKPSNTKVDKKVEPKSCDKTHTCPPCPAPEAAGPSVFLFPPKPKDTLMISRTPEVTCVVVDVSHEDPEVKFNWYVDGVEVHNAKTKPREEQYNSTYRVVSVLTVLHQDWLNGKEYKCKVSNKALPAPIEKTISKAKGQPREPQVYTLPPSREEMTKNQVSLWCLVKGFYPSDIAVEWESNGQPENNYKTTPPVLDSDGSFFLYSKLTVDKSRWQQGNVFSCSVMHEALHNHYTQKSLSLSPGGGGGSGGGGSGGGGSGGGGSEVQLVESGGGLVQPGGSLRLSCAASGFTFTNYGLHWVRQAPGKGLEWVSSISPSGGVTYYRDSVKGRFTISRDNSKNTLYLQMNSLRAEDTAVYYCAKPFLGWGGANWIAHWGQGTLVTVSS
chain 2: QVTLKESGPALVKPTQTLTLTCTFSGFSLSTSGTCVSWIRQPPGKALEWLATICWEDSKGYNPSLKSRLTISKDTSKNQAVLTMTNMDPVDTATYYCARREDSGYFWFPYWGQGTLVTVSSASTKGPSVFPLAPSSKSTSGGTAALGCLVKDYFPEPVTVSWNSGALTSGVHTFPAVLQSSGLYSLSSVVTVPSSSLGTQTYICNVNHKPSNTKVDKKVEPKSCDKTHTCPPCPAPEAAGPSVFLFPPKPKDTLMISRTPEVTCVVVDVSHEDPEVKFNWYVDGVEVHNAKTKPREEQYNSTYRVVSVLTVLHQDWLNGKEYKCKVSNKALPAPIEKTISKAKGQPREPQVYTLPPSREEMTKNQVSLSCAVKGFYPSDIAVEWESNGQPENNYKTTPPVLDSDGSFFLVSKLTVDKSRWQQGNVFSCSVMHEALHNRFTQKSLSLSPGGGGGSGGGGSGGGGSGGGGSDIQMTQSPSSLSASVGDRVTITCLASEDISNDLAWYQQKPGKAPKLLIYFVDRLLDGVPSRFSGSGSGTDFTLTISSLQPEDFATYYCQQSYKYPPTFGQGTKLEIK
light: NIQMTQSPSSLSASVGDRVTITCKAGQNVNNYLAWYQQKPGKAPKVLIFNANSLQTGVPSRFSGSGSGTDFTLTISSLQPEDFATYYCQQYNSWPTFGGGTKVEIKRTVAAPSVFIFPPSDEQLKSGTASVVCLLNNFYPREAKVQWKVDNALQSGNSQESVTEQDSKDSTYSLSSTLTLSKADYEKHKVYACEVTHQGLSSPVTKSFNRGEC
notes: PD-1/CD40: two PD-1 Fabs, terminal CD40 Fv (TM559)
B2: Ly2326 (bispecific antibody, human IgG1, kappa)
chain 1: QVQLQQSGAELVRPGSSVKISCKASGYAFSSYWMNWVKQRPGQGLEWIGQIWPGDGDTNYNGKFKGKATLTADESSSTAYMQLSSLASEDSAVYFCARRETTTVGRYYYAMDYWGQGTTVTVSSASTKGPSVFPLAPSSKSTSGGTAALGCLVKDYFPEPVTVSWNSGALTSGVHTFPAVLQSSGLYSLSSVVTVPSSSLGTQTYICNVNHKPSNTKVDKKVEPKSCDKTHTCPPCPAPEAAGPSVFLFPPKPKDTLMISRTPEVTCVVVDVSHEDPEVKFNWYVDGVEVHNAKTKPREEQYNSTYRVVSVLTVLHQDWLNGKEYKCKVSNKALPAPIEKTISKAKGQPREPQVYTLPPSREEMTKNQVSLWCLVKGFYPSDIAVEWESNGQPENNYKTTPPVLDSDGSFFLYSKLTVDKSRWQQGNVFSCSVMHEALHNHYTQKSLSLSPGGGGGSGGGGSGGGGSGGGGSQVQLVQSGAEVKKPGASVKVSCKASGYTFAGFEMHWVRQAPGQGLEWMGAIDPKTGGTDYNQKFKDRVTMTRDTSISTAYMELSRLRSDDTAVYYCARDLGYFDVWGQGTLVTVSS
chain 2: QVQLQQSGAELVRPGSSVKISCKASGYAFSSYWMNWVKQRPGQGLEWIGQIWPGDGDTNYNGKFKGKATLTADESSSTAYMQLSSLASEDSAVYFCARRETTTVGRYYYAMDYWGQGTTVTVSSASTKGPSVFPLAPSSKSTSGGTAALGCLVKDYFPEPVTVSWNSGALTSGVHTFPAVLQSSGLYSLSSVVTVPSSSLGTQTYICNVNHKPSNTKVDKKVEPKSCDKTHTCPPCPAPEAAGPSVFLFPPKPKDTLMISRTPEVTCVVVDVSHEDPEVKFNWYVDGVEVHNAKTKPREEQYNSTYRVVSVLTVLHQDWLNGKEYKCKVSNKALPAPIEKTISKAKGQPREPQVYTLPPSREEMTKNQVSLSCAVKGFYPSDIAVEWESNGQPENNYKTTPPVLDSDGSFFLVSKLTVDKSRWQQGNVFSCSVMHEALHNRFTQKSLSLSPGGGGGSGGGGSGGGGSGGGGSDIQMTQSPSSLSASVGDRVTITCRASQDIRSNLNWYQQKPGGAVKLLIYYTSRLHSGVPSRFSGSGSGTDYTLTISSLQPEDFATYFCQQSEKLPRTFGGGTKVEIR
light: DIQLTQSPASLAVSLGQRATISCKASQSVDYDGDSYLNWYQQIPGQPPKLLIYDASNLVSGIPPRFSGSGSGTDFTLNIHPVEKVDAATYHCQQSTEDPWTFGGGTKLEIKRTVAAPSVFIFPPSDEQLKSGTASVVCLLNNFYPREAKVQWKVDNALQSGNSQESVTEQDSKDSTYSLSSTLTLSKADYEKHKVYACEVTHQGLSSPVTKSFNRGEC
notes: CD19/CD137: two CD19 Fabs, terminal CD137 Fv
B3: Ly1963 (other)
chain 1: QVQLVQSGAEVKKPGASVKVSCKASGYTFTSYVMHWVRQKPGQGLEWIGYINPYNEGTESTDKFKGRATMTSDKSTSTVYMELSSLRSEDTAVYYCASIYYGYEGTYFGVWGQGTLVTVSSASTKGPSVFPLAPSSKSTSGGTAALGCLVKDYFPEPVTVSWNSGALTSGVHTFPAVLQSSGLYSLSSVVTVPSSSLGTQTYICNVNHKPSNTKVDKKVEPKSCGGGGSGGGGSGGGGSGGGGSEVQLVESGGGLVQPGGSLRLSCAASGFTFSTYAMNWVRQAPGKGLEWVGRIRSKYNNYATYYADSVKGRFTISRDDSKNSLYLQMNSLKTEDTAVYYCVRHGNFGNSYVSWFAYWGQGTLVTVSSGGGGSDKTHTCPPCPAPEAAGPSVFLFPPKPKDTLMISRTPEVTCVVVDVSHEDPEVKFNWYVDGVEVHNAKTKPREEQYNSTYRVVSVLTVLHQDWLNGKEYKCKVSNKALPAPIEKTISKAKGQPREPQVYTLPPSREEMTKNQVSLWCLVKGFYPSDIAVEWESNGQPENNYKTTPPVLDSDGSFFLYSKLTVDKSRWQQGNVFSCSVMHEALHNHYTQKSLSLSPGGGGGSGGGGSGGGGSGGGGSQVQLVQSGAEVKKPGASVKVSCKASGYTFAGFEMHWVRQAPGQGLEWMGAIDPKTGGTDYNQKFKDRVTMTRDTSISTAYMELSRLRSDDTAVYYCARDLGYFDVWGQGTLVTVSS
chain 2: QVQLVQSGAEVKKPGASVKVSCKASGYTFTSYVMHWVRQKPGQGLEWIGYINPYNEGTESTDKFKGRATMTSDKSTSTVYMELSSLRSEDTAVYYCASIYYGYEGTYFGVWGQGTLVTVSSASTKGPSVFPLAPSSKSTSGGTAALGCLVKDYFPEPVTVSWNSGALTSGVHTFPAVLQSSGLYSLSSVVTVPSSSLGTQTYICNVNHKPSNTKVDKKVEPKSCGGGGSGGGGSGGGGSGGGGSQAVVTQEPSLTVSPGGTVTLTCRSSTGAVTTSNYANWVQQKPGQAPRGLIGGTNKRAPWTPARFSGSLLGGKAALTITGAQAEDEADYYCALWYSNLWVFGGGTKLTVLGGGGSDKTHTCPPCPAPEAAGPSVFLFPPKPKDTLMISRTPEVTCVVVDVSHEDPEVKFNWYVDGVEVHNAKTKPREEQYNSTYRVVSVLTVLHQDWLNGKEYKCKVSNKALPAPIEKTISKAKGQPREPQVYTLPPSREEMTKNQVSLSCAVKGFYPSDIAVEWESNGQPENNYKTTPPVLDSDGSFFLVSKLTVDKSRWQQGNVFSCSVMHEALHNHYTQKSLSLSPGGGGGSGGGGSGGGGSGGGGSDIQMTQSPSSLSASVGDRVTITCRASQDIRSNLNWYQQKPGGAVKLLIYYTSRLHSGVPSRFSGSGSGTDYTLTISSLQPEDFATYFCQQSEKLPRTFGGGTKVEIR
light: EIVLTQSPATLSLSPGERATLSCRASSSVSYMHWYQQKPGQAPRPWIYATSNLASGIPARFSGSRSGTDYTLTISSLEPEDFAVYYCQQWSSNTLTFGGGTKVEIKRTVAAPSVFIFPPSDEQLKSGTASVVCLLNNFYPREAKVQWKVDNALQSGNSQESVTEQDSKDSTYSLSSTLTLSKADYEKHKVYACEVTHQGLSSPVTKSFNRGEC
B4: Ly2122 (bispecific antibody, human IgG1, kappa)
chain 1: QVQLVQSGAEVKKPGASVKVSCKASGYTFTSYVMHWVRQKPGQGLEWIGYINPYNEGTESTDKFKGRATMTSDKSTSTVYMELSSLRSEDTAVYYCASIYYGYEGTYFGVWGQGTLVTVSSASTKGPSVFPLAPSSKSTSGGTAALGCLVKDYFPEPVTVSWNSGALTSGVHTFPAVLQSSGLYSLSSVVTVPSSSLGTQTYICNVNHKPSNTKVDKKVEPKSCDKTHTCPPCPAPEAAGPSVFLFPPKPKDTLMISRTPEVTCVVVDVSHEDPEVKFNWYVDGVEVHNAKTKPREEQYNSTYRVVSVLTVLHQDWLNGKEYKCKVSNKALPAPIEKTISKAKGQPREPQVYTLPPSREEMTKNQVSLWCLVKGFYPSDIAVEWESNGQPENNYKTTPPVLDSDGSFFLYSKLTVDKSRWQQGNVFSCSVMHEALHNHYTQKSLSLSPGGGGGSGGGGSGGGGSGGGGSQVQLVQSGAEVKKPGASVKVSCKASGYTFAGFEMHWVRQAPGQGLEWMGAIDPKTGGTDYNQKFKDRVTMTRDTSISTAYMELSRLRSDDTAVYYCARDLGYFDVWGQGTLVTVSS
chain 2: QVQLVQSGAEVKKPGASVKVSCKASGYTFTSYVMHWVRQKPGQGLEWIGYINPYNEGTESTDKFKGRATMTSDKSTSTVYMELSSLRSEDTAVYYCASIYYGYEGTYFGVWGQGTLVTVSSASTKGPSVFPLAPSSKSTSGGTAALGCLVKDYFPEPVTVSWNSGALTSGVHTFPAVLQSSGLYSLSSVVTVPSSSLGTQTYICNVNHKPSNTKVDKKVEPKSCDKTHTCPPCPAPEAAGPSVFLFPPKPKDTLMISRTPEVTCVVVDVSHEDPEVKFNWYVDGVEVHNAKTKPREEQYNSTYRVVSVLTVLHQDWLNGKEYKCKVSNKALPAPIEKTISKAKGQPREPQVYTLPPSREEMTKNQVSLSCAVKGFYPSDIAVEWESNGQPENNYKTTPPVLDSDGSFFLVSKLTVDKSRWQQGNVFSCSVMHEALHNRFTQKSLSLSPGGGGGSGGGGSGGGGSGGGGSDIQMTQSPSSLSASVGDRVTITCRASQDIRSNLNWYQQKPGGAVKLLIYYTSRLHSGVPSRFSGSGSGTDYTLTISSLQPEDFATYFCQQSEKLPRTFGGGTKVEIR
light: B3 light
notes: B7H3/CD137: two B7H3 Fabs, terminal CD137 Fv

Legend:
[1] = biological target: T2, PD-1 (human, UniProt Q15116 25-167, limits assumed); experiment: FCM or ELISA
T2 construct: The reporter assay used Jurkat T cells expressing human PD-1
T2 sequence (Q15116 25-167 limits assumed): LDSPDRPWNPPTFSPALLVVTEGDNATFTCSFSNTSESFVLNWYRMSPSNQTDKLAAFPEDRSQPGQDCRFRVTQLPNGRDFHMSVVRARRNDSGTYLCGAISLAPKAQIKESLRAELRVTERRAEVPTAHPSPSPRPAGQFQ

[2] = biological target: T3, CD137 (human, UniProt Q07011 24-186); experiment: CD137 binding by FCM or ELISA
T3 construct: Reporter assays used GS-H2-huCD137 cells expressing human CD137; also called 4-1BB/CD137; huCD137

[3] = biological target: T1, B7H3; experiment: FCM or ELISA

Binder	binding result [1]	binding result [2]	binding result [3]
B1	binds	–	–
B2	–	binds	–
B3	–	binds	binds
B4	–	binds	binds
